The supplement of paper PMC6755084

B1: F1*; the commonest letter at each place (parent)
chain: GAGACCGCAACTGAAAAGTTGTTATCACTTGTCGTAAGACACTTTGGATGGGTTGAAGTTCTGCACGTAGAAGCAAAAGGC

Variants of: B1
Assay: fraction ligated after 30 min (ligated reads / total reads); higher = more ligase activity
Conditions: with F1*sub RNA substrate (template-directed ligation), 42 °C
Method: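 Chip-synthesised pool of F1* ligase ribozyme variants (all single and double substitutions, single, double and triple deletions in the catalytic core and GAA bulge, plus designed variants) was transcribed with T7 and reacted as a pool with excess substrate F1*sub for 30 min at 42 C in 50 mM EPPS pH 8.5, 25 mM MgCl2. Ligated and unligated bands were separated by PAGE, barcoded by RT and deep sequenced; fraction ligated = ligated reads / total reads per variant, relative activity = FL / FL of wild type (0.826). Sequences are the DNA template of the ribozyme.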

Compared with C28T T43C, C28G G31C is higher in fraction ligated: 0.781 for the first, 0.81 for the second.

Compared with C28G G31A, C28G G31T is higher in fraction ligated: 0.799 for the first, 0.833 for the second.

Going from C28G T29G to C28G T29A, the fraction ligated rises from 0.789 to 0.803.

Going from C28G T29C to C28T T29G, the fraction ligated rises from 0.814 to 0.825.

Compared with C28T T29C, C28T T29A is higher in fraction ligated: 0.789 for the first, 0.823 for the second.

Going from T29A A37T to T29A A37C, the fraction ligated rises from 0.848 to 0.849.

First: T29A A37G
Second: C28G G50A
The fraction ligated of the first is higher: 0.839 for the first, 0.224 for the second.

Compared with C28G G50T, C28G G50C is lower in fraction ligated: 0.594 for the first, 0.19 for the second.

First: T29A C33G
Second: T29A C33A
The fraction ligated of the first is higher: 0.868 for the first, 0.852 for the second.

First: T29A C33T
Second: T29G G34T
The fraction ligated of the first is higher: 0.859 for the first, 0.83 for the second.

Compared with T29G G34C, T29G G34A is higher in fraction ligated: 0.808 for the first, 0.824 for the second.

Going from T29C C42T to T29C C42G, the fraction ligated falls from 0.828 to 0.818.

Compared with T29C C42A, T29C C33A is lower in fraction ligated: 0.85 for the first, 0.824 for the second.

Compared with T29C C33G, T29C C33T is lower in fraction ligated: 0.827 for the first, 0.816 for the second.

First: C28G G34T
Second: C28G G34C
The fraction ligated of the first is higher: 0.798 for the first, 0.768 for the second.

First: C28G G34A
Second: T29A T49C
The fraction ligated of the first is higher: 0.794 for the first, 0.66 for the second.

Going from T29A T49A to T29A T49G, the fraction ligated rises from 0.784 to 0.789.

Compared with T29A A39G, T29A A39T is lower in fraction ligated: 0.845 for the first, 0.831 for the second.

First: T29A A39C
Second: T29G A48C
The fraction ligated of the first is higher: 0.82 for the first, 0.756 for the second.

Compared with T29G A48T, T29G A48G is higher in fraction ligated: 0.773 for the first, 0.805 for the second.

Going from T29A G47T to T29A G47A, the fraction ligated rises from 0.473 to 0.804.

Going from T29A G47C to T29A T32G, the fraction ligated rises from 0.249 to 0.842.

Going from T29A T32C to T29A T32A, the fraction ligated rises from 0.774 to 0.869.

Compared with T29C T44C, T29C T44A is lower in fraction ligated: 0.822 for the first, 0.802 for the second.

First: T29C T44G
Second: T29G G38A
The fraction ligated of the first is higher: 0.848 for the first, 0.844 for the second.

Compared with T29G G38T, T29G G38C is lower in fraction ligated: 0.855 for the first, 0.844 for the second.

First: C28G G38C
Second: C28G G38A
The fraction ligated of the first is lower: 0.778 for the first, 0.792 for the second.

Going from C28G G38T to T29G A57C, the fraction ligated falls from 0.772 to 0.765.

Going from T29G A57G to T29G A57T, the fraction ligated rises from 0.776 to 0.811.

Compared with C28T A41C, C28T A41T is higher in fraction ligated: 0.792 for the first, 0.806 for the second.

First: C28T A41G
Second: C28T G55A
The fraction ligated of the first is lower: 0.789 for the first, 0.801 for the second.

Going from C28T G55T to C28T G55C, the fraction ligated falls from 0.765 to 0.221.

First: T29A C40G
Second: T29A C40T
The fraction ligated of the first is lower: 0.854 for the first, 0.857 for the second.

Going from T29A C40A to C28T G38A, the fraction ligated falls from 0.851 to 0.811.

First: C28T G38C
Second: C28T G38T
The fraction ligated of the first is higher: 0.799 for the first, 0.795 for the second.

Compared with T29C C40T, T29C C40A is lower in fraction ligated: 0.818 for the first, 0.791 for the second.

Compared with T29C C40G, T29G C42T is higher in fraction ligated: 0.824 for the first, 0.83 for the second.

Compared with T29G C42G, T29G C42A is lower in fraction ligated: 0.839 for the first, 0.813 for the second.

First: C28T G31T
Second: C28T G31C
The fraction ligated of the first is lower: 0.826 for the first, 0.828 for the second.

Compared with C28T G31A, C28T A39G is lower in fraction ligated: 0.81 for the first, 0.796 for the second.

Compared with C28T A39T, C28T A39C is lower in fraction ligated: 0.796 for the first, 0.795 for the second.

First: T29G C40A
Second: T29G C40G
The fraction ligated of the first is higher: 0.84 for the first, 0.83 for the second.

First: T29G C40T
Second: T29C G34A
The fraction ligated of the first is lower: 0.809 for the first, 0.827 for the second.

Going from T29C G34T to T29C G34C, the fraction ligated falls from 0.823 to 0.793.

Compared with T29A G55A, T29A G55T is lower in fraction ligated: 0.84 for the first, 0.788 for the second.

Going from T29A G55C to T29G A41C, the fraction ligated rises from 0.79 to 0.83.

Compared with T29G A41T, T29G A41G is lower in fraction ligated: 0.833 for the first, 0.815 for the second.

First: T29A G34T
Second: T29A G34A
The fraction ligated of the first is lower: 0.842 for the first, 0.852 for the second.

Compared with T29A G34C, C28G G55A is lower in fraction ligated: 0.816 for the first, 0.779 for the second.

Compared with C28G G55T, C28G G55C is lower in fraction ligated: 0.763 for the first, 0.28 for the second.

Compared with C28G T35G, C28G T35A is higher in fraction ligated: 0.759 for the first, 0.814 for the second.

Compared with C28G T35C, T29G G50A is lower in fraction ligated: 0.802 for the first, 0.345 for the second.

First: T29G G50C
Second: T29G G50T
The fraction ligated of the first is lower: 0.243 for the first, 0.683 for the second.

Going from T29A T44A to T29A T44G, the fraction ligated falls from 0.833 to 0.812.

Going from T29A T44C to T29G T32A, the fraction ligated falls from 0.825 to 0.821.

Going from T29C A36C to T29C A36G, the fraction ligated rises from 0.821 to 0.841.

First: T29C A36T
Second: T29C A48T
The fraction ligated of the first is higher: 0.834 for the first, 0.592 for the second.

First: T29C A48C
Second: T29C A48G
The fraction ligated of the first is higher: 0.745 for the first, 0.389 for the second.

Compared with T29A A36C, T29A A36G is lower in fraction ligated: 0.855 for the first, 0.853 for the second.

First: T29A A36T
Second: C28T C33A
The fraction ligated of the first is higher: 0.847 for the first, 0.816 for the second.

First: C28T C33G
Second: C28T C33T
The fraction ligated of the first is lower: 0.809 for the first, 0.822 for the second.

Going from C28G C42T to C28G C42A, the fraction ligated rises from 0.815 to 0.824.

Compared with C28G C42G, T29A T35G is lower in fraction ligated: 0.851 for the first, 0.834 for the second.

First: T29A T35A
Second: T29A T35C
The fraction ligated of the first is lower: 0.821 for the first, 0.828 for the second.

Going from T29C T32G to T29C T32A, the fraction ligated rises from 0.794 to 0.804.

Going from T29C T32C to C28T G34C, the fraction ligated rises from 0.764 to 0.79.

Going from C28T G34A to C28T G34T, the fraction ligated falls from 0.814 to 0.802.

Compared with C28G T49A, C28G T49C is higher in fraction ligated: 0.656 for the first, 0.674 for the second.

First: C28G T49G
Second: C28T A56T
The fraction ligated of the first is higher: 0.763 for the first, 0.731 for the second.

Compared with C28T A56G, C28T A56C is higher in fraction ligated: 0.567 for the first, 0.595 for the second.

Compared with C28T A57T, C28T A57G is lower in fraction ligated: 0.817 for the first, 0.798 for the second.

Going from C28T A57C to T29A A48C, the fraction ligated rises from 0.744 to 0.761.

Going from T29A A48T to T29A A48G, the fraction ligated rises from 0.801 to 0.803.

First: T29A G31T
Second: T29A G31C
The fraction ligated of the first is higher: 0.845 for the first, 0.842 for the second.

Going from T29A G31A to C28G T45A, the fraction ligated falls from 0.844 to 0.558.

Compared with C28G T45G, C28G T45C is higher in fraction ligated: 0.259 for the first, 0.337 for the second.

Compared with T29A G38A, T29A G38T is higher in fraction ligated: 0.85 for the first, 0.87 for the second.

Going from T29A G38C to T29G G47T, the fraction ligated falls from 0.851 to 0.738.

Going from T29G G47A to T29G G47C, the fraction ligated falls from 0.816 to 0.696.

Going from C28G T32C to C28G T32G, the fraction ligated rises from 0.723 to 0.783.

Compared with C28G T32A, C28T A37T is higher in fraction ligated: 0.795 for the first, 0.81 for the second.

Going from C28T A37G to C28T A37C, the fraction ligated falls from 0.8 to 0.799.

Compared with T29G G55A, T29G G55T is higher in fraction ligated: 0.79 for the first, 0.792 for the second.

For T29G G55C, the fraction ligated was 0.584.
